Laboratory results published in patent US20220195057A1 (LANOVA MEDICINES, published 2022).

Legend:
[1] = target: T1, human chemokine (C-C motif) receptor 8 (CCR8) protein (human, UniProt P51685 1-355); assay: cell binding, CCR8-expressing U2OS cells, curve fit; set-up: LogEC50: unit not given here
T1 construct: whole, on cells; also called human CCR8

[2] = target: T1, human chemokine (C-C motif) receptor 8 …; assay: flow cytometry, high-CCR8-expressing U2OS cells
Text: The cells used were U2OS (U2OS/H_CCR8).

[3] = target: T1, human chemokine (C-C motif) receptor 8 …; assay: cell-based or functional assay
[4] = target: T1, human chemokine (C-C motif) receptor 8 …; assay: flow cytometry, low-CCR8-expressing Jurkat cells
Text: The cells used were Jurkat engineering cells (Jurkat/H_CCR8).

[5] = target: T1, human chemokine (C-C motif) receptor 8 …; assay: flow cytometry, CCR8-expressing HEK293 cells
Method in brief: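 Cell binding was measured by flow cytometry on HEK293 cells overexpressing human CCR8, alongside parental HEK293 cells. Antibodies were titrated from 200 nM in 4-fold dilutions over 12 points and incubated with the cells at 4° C for 60 minutes. Cells were washed twice with FACS buffer, stained with Alexa Fluor 647 goat anti-human IgG at 4° C for 60 minutes, washed twice and analysed. The read-out is binding EC50.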

[6] = target: T1, human chemokine (C-C motif) receptor 8 …; assay: cell binding, CCR8-expressing CHO-K1 cells, curve fit; set-up: LogEC50: unit not given here

B1: 137-H3L2 (LM-108) (antibody, V domains shown)
VH: EVQLVESGGGLVQPGGSLKLSCAASGFTFNTYAMNWVRQASGKGLEWVARIRSKANNYATYYADSVKDRFTISRDDSKNTLYLQMNNLKTEDTAVYYCVRDRSRGEDYAMDYWGQGTLVTVSS
VL: DIVMTQSPLSLPVTPGEPASISCRSSKSLLHSNANTYLYWFLQKPGQSPQLLIYRMSNLASGVPDRFSGSGSGTAFTLKISRVEAEDVGVYYCMQHLEYPFTFGQGTKLEIK
notes: Humanized 137D1H10; Detected with anti-human IgG
[1]
  Bottom: 2060
  LogEC50: -0.69
  Span: 30200
  Top: 32300
[2]
  EC50: 0.25 nM
[3]
  ADCC EC50 with primary human PBMCs (cytotoxicity detection): 0.002 nM
[4]
  EC50: 0.212 nM
[5]
  EC50: 1.03 nM
[6]
  Bottom: 4260
  LogEC50: -0.684
  Span: 28900
  Top: 33200
